In paper PMC11131964, “Enantioselective transformation of phytoplankton-derived dihydroxypropanesulfonate by marine bacteria” (The ISME Journal, 2024):
One block for each molecule: values may come before it.

Experiments:
[1] = target: T1, RpHpsP (S-DHPS dehydrogenase HpsP, SPO0596) (Ruegeria pomeroyi, UniProt Q5LVU9); assay: SPR (Biacore T200, CM5 chip); also NADH formation assay; assay type: binding
T1 sequence (Q5LVU9 1-332): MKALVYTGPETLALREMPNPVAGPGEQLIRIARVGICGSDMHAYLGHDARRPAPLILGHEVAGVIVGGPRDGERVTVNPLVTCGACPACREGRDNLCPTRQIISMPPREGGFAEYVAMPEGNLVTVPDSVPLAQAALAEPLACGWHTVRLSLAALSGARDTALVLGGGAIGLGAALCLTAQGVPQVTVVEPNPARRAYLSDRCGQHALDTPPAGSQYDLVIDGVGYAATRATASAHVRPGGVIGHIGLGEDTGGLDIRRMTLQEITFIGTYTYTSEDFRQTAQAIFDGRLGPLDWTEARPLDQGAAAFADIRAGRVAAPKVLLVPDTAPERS

[2] = target: T2, RpHpsO (R-DHPS dehydrogenase HpsO, SPO0595) (Ruegeria pomeroyi, UniProt Q5LVV0); assay: SPR (Biacore T200, CM5 chip); also NADH formation assay, Km […]; assay type: binding
T2 sequence (Q5LVV0 1-253): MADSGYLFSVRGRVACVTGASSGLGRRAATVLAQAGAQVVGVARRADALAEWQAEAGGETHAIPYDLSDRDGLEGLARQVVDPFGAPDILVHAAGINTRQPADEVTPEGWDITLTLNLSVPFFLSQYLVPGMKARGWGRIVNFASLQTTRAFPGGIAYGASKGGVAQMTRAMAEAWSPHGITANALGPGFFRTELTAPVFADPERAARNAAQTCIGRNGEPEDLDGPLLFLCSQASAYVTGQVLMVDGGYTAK

[3] = target: T3, RpHpsN (R-DHPS dehydrogenase HpsN, SPO0594) (Ruegeria pomeroyi, UniProt Q5LVV1); assay: as above; assay type: binding
T3 sequence (Q5LVV1 1-435): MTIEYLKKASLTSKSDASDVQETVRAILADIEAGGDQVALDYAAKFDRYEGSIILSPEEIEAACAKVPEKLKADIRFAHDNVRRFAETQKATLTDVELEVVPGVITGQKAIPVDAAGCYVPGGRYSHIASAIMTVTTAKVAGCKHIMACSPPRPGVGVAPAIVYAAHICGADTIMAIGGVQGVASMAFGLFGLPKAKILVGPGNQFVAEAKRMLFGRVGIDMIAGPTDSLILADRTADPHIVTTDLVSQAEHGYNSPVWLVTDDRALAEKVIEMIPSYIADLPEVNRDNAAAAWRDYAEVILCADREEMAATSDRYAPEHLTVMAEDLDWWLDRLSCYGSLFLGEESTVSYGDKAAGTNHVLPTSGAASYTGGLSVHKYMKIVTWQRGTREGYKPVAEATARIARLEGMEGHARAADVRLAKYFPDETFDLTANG

[4] = target: HpsP from Dinoroseobacter shibae DFL 12 (S-DHPS dehydrogenase) (Dinoroseobacter shibae DFL 12) (UniProt A8LJR6); assay: crystal structure; DsHpsP alone, crystallised at 18°C in 0.2 M sodium formate, 18% PEG 3350; 2.3 Å; oligomer seen in the asymmetric unit
[5] = substrate: OC[C@@H](O)[C@@H](O)[C@H](O)[C@@H](O)CO; assay: Michaelis-Menten kinetics of purified enzyme (Km); assay type: biochemical, Bacillus subtilis
[6] = target: the molecule itself; assay: crystal structure; RpHpsO alone, crystallised at 20°C in 0.1 M sodium citrate pH 5.4, 0.8 M sodium formate; 1.7 Å; oligomer seen in the asymmetric unit
[7] = substrate: N[C@H](CO)Cc1c[nH]cn1; assay: Michaelis-Menten kinetics of purified enzyme (Km); assay type: biochemical, Escherichia coli
[8] = target: the molecule itself; assay: crystal structure; RpHpsN alone, crystallised at 18°C in 0.1 M Tris pH 7.5, 1.1 M ammonium sulfate; 2.9 Å; oligomer seen in the asymmetric unit

- Kd [1]: 740 µM
Molecule: O=S(=O)(O)C[C@@H](O)CO [S-DHPS]

- Kd [2]: 330 µM
- Kd [3]: 860 µM
Molecule: O=S(=O)(O)C[C@H](O)CO [R-DHPS]

- stoichiometry N [4]: 4
Molecule: HpsP from Dinoroseobacter shibae DFL 12 (S-DHPS dehydrogenase) (from UniProt A8LJR6 1-512) (enzyme)

B1: D-sorbitol dehydrogenase (Bsubs1_010100003458) (Bacillus subtilis subsp. subtilis str. 168) (protein)
chain: THTVPQNMKAAVMHNTREIKIETLPVPDINHDEVLIKVMAVGICGSDLHYYTNGRIGNYVVEKPFILGHECAGEIAAVGSSVDQFKVGDRVAVEPGVTCGRCEACKEGRYNLCPDVQFLATPPVDGAFVQYIKMRQDFVFLIPDSLSYEEAALIEPFSVGIHAAARTKLQPGSTIAIMGMGPVGLMAVAAAKAFGAGTIIVTDLEPLRLEAAKKMGATHIINIREQDALEEIKTITNDRGVDVAWETAGNPAALQSALASVRRGGKLAIVGLPSQNEIPLNVPFIADNEIDIYGIFRYANTYPKGIEFLASGIVDTKHLVTDQYSLEQTQDAMERALQFKNECLKVMVYPNR
- Km [5]: 32.35 ± 3.59 mM
- kcat [5]: 0.027 ± 0.001 s⁻¹
- kcat/Km [5]: 0.83 ± 0.045 M⁻¹ s⁻¹

B2: HpsO from Ruegeria pomeroyi DSS-3 (R-DHPS dehydrogenase) (enzyme)
chain: MADSGYLFSVRGRVACVTGASSGLGRRAATVLAQAGAQVVGVARRADALAEWQAEAGGETHAIPYDLSDRDGLEGLARQVVDPFGAPDILVHAAGINTRQPADEVTPEGWDITLTLNLSVPFFLSQYLVPGMKARGWGRIVNFASLQTTRAFPGGIAYGASKGGVAQMTRAMAEAWSPHGITANALGPGFFRTELTAPVFADPERAARNAAQTCIGRNGEPEDLDGPLLFLCSQASAYVTGQVLMVDGGYTAK
notes: HpsO, R-DHPS dehydrogenase of the short chain dehydrogenase/reductase family, Ruegeria pomeroyi DSS-3, locus tag SPO0595; Wild type; also called RpHpsO; SPO0595; source: E. coli BL21(DE3), pET28a, purified (HisTrap HP, Superdex 200 gel filtration)
- stoichiometry N [6]: 4

B3: L-histidinol dehydrogenase (Escherichia coli K-12) (protein)
chain: SFNTIIDWNSCTAEQQRQLLMRPAISASESITRTVNDILDNVKARGDEALREYSAKFDKTTVTALKVSAEEIAAASERLSDELKQAMAVAVKNIETFHTAQKLPPVDVETQPGVRCQQVTRPVASVGLYIPGGSAPLFSTVLMLATPASIAGCKKVVLCSPPPIADEILYAAQLCGVQDVFNVGGAQAIAALAFGTESVPKVDKIFGPGNAFVTEAKRQVSQRLDGAAIDMPAGPSEVLVIADSGATPDFVASDLLSQAEHGPDSQVILLTPAADMARRVAEAVERQLAELPRAETARQALNASRLIVTKDLAQCVEISNQYGPEHLIIQTRNARELVDSITSAGSVFLGDWSPESAGDYASGTNHVLPTYGYTATCSSLGLADFQKRMTVQELSKEGFSALASTIETLAAAERLTAHKNAVTLRVNALKEQA
- Km [7]: 9.37 ± 3.63 mM
- kcat [7]: 0.042 ± 0.022 s⁻¹
- kcat/Km [7]: 4 ± 2 M⁻¹ s⁻¹

B4: HpsN from Ruegeria pomeroyi DSS-3 (R-DHPS dehydrogenase) (enzyme)
chain: MTIEYLKKASLTSKSDASDVQETVRAILADIEAGGDQVALDYAAKFDRYEGSIILSPEEIEAACAKVPEKLKADIRFAHDNVRRFAETQKATLTDVELEVVPGVITGQKAIPVDAAGCYVPGGRYSHIASAIMTVTTAKVAGCKHIMACSPPRPGVGVAPAIVYAAHICGADTIMAIGGVQGVASMAFGLFGLPKAKILVGPGNQFVAEAKRMLFGRVGIDMIAGPTDSLILADRTADPHIVTTDLVSQAEHGYNSPVWLVTDDRALAEKVIEMIPSYIADLPEVNRDNAAAAWRDYAEVILCADREEMAATSDRYAPEHLTVMAEDLDWWLDRLSCYGSLFLGEESTVSYGDKAAGTNHVLPTSGAASYTGGLSVHKYMKIVTWQRGTREGYKPVAEATARIARLE
notes: HpsN, R-DHPS dehydrogenase (sulfopropanediol 3-dehydrogenase) of the aldehyde dehydrogenase superfamily, Ruegeria pomeroyi DSS-3, locus tag SPO0594; Wild type; Val218-Gly225 and Thr348-Leu374 lack electron density in the crystal structure; also called RpHpsN; SPO0594; source: E. coli BL21(DE3), pET28a, purified (HisTrap HP, Superdex 200 gel filtration)
- stoichiometry N [8]: 4
